Patent US7141417 (THOMAS JEFFERSON UNIVERSITY, dated 2006)

B1: ^35S-methionine-labeled in vitro translated full-length 67 kDa Fez1 (other)
chain: MGSVSSLISGHSFHSKHCRASQYKLRKSSHLKKLNRYSDGLLRFGFSQDSGHGKSSSKMGKSEDFFYIKVSQKARGSHHPDYTALSSGDLGGQAGVDFDPSTPPKLMPFSNQLEMGSEKGAVRPTAFKPVLPRSGAILHSSPESASHQLHPAPPDKPKEQELKPGLCSGALSDSGRNSMSSLPTHSTSSSYQLDPLVTPVGPTSRFGGSAHNITQGIVLQDSNMMSLKALSFSDGGSKLGHSNKADKGPSCVRSPISTDECSIQELEQKLLEREGALQKLQRSFEEKELASSLAYEERPRRCRDELEGPEPKGGNKLKQASQKSQRAQQVLHLQVLQLQQEKRQLRQELESLMKEQDLLETKLRSYEREKTSFGPALEETQWEVCQKSGEISLLKQQLKESQTEVNAKASEILGLKAQLKDTRGKLEGLELRTQDLEGALRTKGLELEVCENELQRKKNEAELLREKVNLLEQELQELRAQAALARDMGPPTFPEDVPALQRELERLRAELREERQGHDQMSSGFQHERLVWKEEKEKVIQYQKQLQQSYVAMYQRNQRLEKALQQLARGDSAGEPLEVDLEGADIPYEDIIATEI
modifications: ^35S-methionine label
notes: also called full-length (67 kDa) Fez1 protein
B2: EF1-γ(N), ^35S-methionine-labeled in vitro translated deletion mutant of EF1-γ (other)
chain: MAAGTLYTYPENWRAFKALIAAQYSGAQVRVLSAPPHFHFGQTNRTPEFLRKFPAGKVPAFEGDDGFCVFESNAIAYYVSNEELRGSTPEAAAQVVQWVSFADSDIVPPASTWVFPTLGIMHHNKQATENAKEEVRRILGLLDAYLKTRTFLV
modifications: ^35S-methionine label ; 35S-labelled methionine residues (radiolabel), written M
B3: GST fused with EF1-γ(N) (other, human, UniProt P26641 1-153, looked up)
chain: B2 chain
notes: not shown: glutathione S-transferase (GST)
B4: ^35S-methionine-labeled in vitro translated EF1-α (other, UniProt P68104 1-462, looked up)
chain: MGKEKTHINIVVIGHVDSGKSTTTGHLIYKCGGIDKRTIEKFEKEAAEMGKGSFKYAWVLDKLKAERERGITIDISLWKFETSKYYVTIIDAPGHRDFIKNMITGTSQADCAVLIVAAGVGEFEAGISKNGQTREHALLAYTLGVKQLIVGVNKMDSTEPPYSQKRYEEIVKEVSTYIKKIGYNPDTVAFVPISGWNGDNMLEPSANMPWFKGWKVTRKDGNASGTTLLEALDCILPPTRPTDKPLRLPLQDVYKIGGIGTVPVGRVETGVLKPGMVVTFAPVNVTTEVKSVEMHHEALSEALPGDNVGFNVKNVSVKDVRRGNVAGDSKNDPPMEAAGFTAQVIILNHPGQISAGYAPVLDCHTAHIACKFAELKEKIDRRSGKKLEDGPKFLKSGDAAIVDMVPGKPMCVESFSDYPPLGRFAVRDMRQTVAVGVIKAVDKKAAGAGKVTKSAQKAQKAK
modifications: ^35S-methionine label
B5: EF1-γ(M), ^35S-methionine-labeled in vitro translated deletion mutant of EF1-γ (other)
chain: GERVTLADITVVCTLLWLYKQVLEPSFRQAFPNTNRWFLTCINQPQFRAVLGEVKLCEKMAQFDAKKFAETQPKKDTPRKEKGSREEKQKPQAERKEEKKAAAPAPEEEMDECEQALAAEPKAKDPFAHLPKSTFVLDEFKRKYSNEDT
modifications: ^35S-methionine label ; 35S-labelled methionine residues (radiolabel), written M

Columns and labels:
[1] = biological target: T1, glutathione S-transferase (GST) fused with full-length (67 kilodalton) Fez1 protein (human, UniProt Q9Y250 1-596); test: in vitro binding of ^35S-labeled full-length Fez1 with GST-fused full-length Fez1, buffer B
T1 construct: Order GST then Fez1 follows the usual pGEX layout; also called GST-fused Fez1; GST-fused full-length 67 kDa Fez1; not shown: glutathione-S-transferase (GST) of the pGEX fusion expression vector (Pharmacia)
T1 sequence: B1 chain
Procedure: (§1) In vitro Transcription/Translation, GST-Fusion Protein and in vitro Binding Assay In vitro transcription and translation was performed using a commercially-available, rabbit reticulocyte-based system, (TNT™ T7 Quick Coupled Transcription/Translation System, Promega) by labeling with ^35S-methionine, according to supplier's instructions. GST-fusion proteins were isolated using a glutathione-agarose column (Pharmacia). Proteins were incubated in two binding buffers: buffer A (comprising 100 millimolar NaCl, 0.5% NP-40, 0.75 milligrams per milliliter bovine serum albumin (BSA), 20 millimolar Tris-HCl pH 8.0, and 1 millimolar EDTA) and buffer B (comprising 150 millimolar NaCl, 0.1% (v/v) Tween 20, 0.75 milligrams per milliliter BSA, 50 millimolar Tris-HCl pH 8.0, 5 millimolar EDTA, 10% (v/v) glycerol). After the glutathione-agarose beads had been pre-incubated in a 10% (w/v) BSA suspension, the beads were mixed with protein samples and washed 5 times, each wash comprising mixing the beads with 10 volumes of the binding buffer. After the beads had been washed, the bead-containing liquid was centrifuged to recover binding proteins. The samples were boiled for 3 minutes and then the proteins in the samples were separated by SDS-PAGE. The gel was dried and exposed to film for 4–24 hours at –80° C.
The amino acid sequence of Fez1 comprises a leucine-zipper-like region. […]

[2] = biological target: T1, glutathione S-transferase (GST) fused …; test: in vitro binding of ^35S-labeled deletion mutants with GST-fused Fez1
Procedure: as §1

[3] = biological target: B1; test: in vitro binding assay (figure legend); by paragraph 373 the labeled partner was Fez1 and EF1-γ(N) was GST-fused
Procedure: as §1, with “C. […]” for “C.”

[4] = biological target: T1, glutathione S-transferase (GST) fused …; test: in vitro binding of ^35S-methionine-labeled in vitro translated EFs to GST-fused Fez1, glutathione-agarose beads, SDS-PAGE
Procedure: as §1

Q: Does B1 bind [1]?
A: binds

Q: Does B2 bind [2]?
A: binds

Q: Does B3 bind [3]?
A: binds

Q: Does B4 bind [4]?
A: no binding

Q: Does B5 bind [2]?
A: no binding
